Numbering of substitutions follows the chain as printed.
B1: A2-G (antibody, human IgG1, kappa, V domains shown)
VH: QVTLKESGPALVKPTQTLTLTCTFSGFSLSTSGMGVSWIRQPPGKALEWLAHIYWDDDKNFNPSLRSRLTITKDPSKNQVVLTMTNMDPVDTATYFCARKLYNDYDYILDYWGQGTTVTVSS
VL: DIVMTQSPLSLPVTPGEPASISCRSSKSLLHSNGITYLGWFLQKPGQSPQLLIYQMSNLASGVPDRFSGSGSGTDFTLKISRVEAEDVGVYYCAQNLELWTFGQGTRLEIKR
notes: also called humanized mutant antibody A2-G
B2: A2-I (antibody, V domains shown)
VH: B1 VH
VL: DIVMTQSPLSLPVTPGEPASISCRSSKSLLHSNGITYLIWFLQKPGQSPQLLIYQMSNLASGVPDRFSGSGSGTDFTLKISRVEAEDVGVYYCAQNLELWTFGQGTRLEIK
notes: also called humanized mutant antibody A2-I
B3: A2-A (antibody, human IgG1, kappa, V domains shown)
VH: B1 VH
VL: B1 VL with G39A
notes: also called humanized mutant antibody A2-A
B4: A2-P (antibody, V domains shown)
VH: B1 VH
VL: B2 VL with I39P
notes: also called humanized mutant antibody A2-P
B5: A2-N (antibody, V domains shown)
VH: B1 VH
VL: B2 VL with I39N
notes: also called humanized mutant antibody A2-N
B6: A2-Q (antibody, V domains shown)
VH: B1 VH
VL: B2 VL with I39Q
notes: also called humanized mutant antibody A2-Q
B7: A2-M (antibody, V domains shown)
VH: B1 VH
VL: B2 VL with I39M
notes: also called humanized mutant antibody A2-M
B8: R3-39A3QH (antibody, human IgG1, kappa, V domains shown)
VH: QVKLEESGPELVKPGASVKISCKASGYAFSSSWVNWVQQRPGQGLEWIGRIYPGDGETKYSGKFRGKATLTADKSSNTVYMQVSSLTSVDSAVYFCAREGGLITSSGYYHAMDYWGQGTSVTVSS
VL: DIVLTQSPPSLAVSLGQRATISCRASKSVDSYGNGFMHWYQQKPGQPPKLLIFLASNLESGVPARFSGSGSRTDFTLTIDPVEADDAASYYCQQSDEDPTFGGGTKLEIKR
notes: also called chimeric antibody of R3-39A3
B9: R10-10B2QH (antibody, human IgG1, kappa, V domains shown)
VH: QVQLEESGAELVRSGASVKLSCTASGFNIKDYYIHWVKQRPEQGLEWIGWNDPENGDTEYAPKFQGKATMTADTSSNTVYLQLSSLTSEDSAVYFCKSFDSYLEYWGQGTSVTVSS
VL: DIVMTQTTLSLPVNLGDQASISCRSSQSLVHTDGNTFLEWYLQRPGQSPKLLIYKVSIRFSGVPDRFSGSGSGTDFTLKISRVETEDLGVYYCFQGSHVPRTFGGGTKLEIKR
notes: also called chimeric antibody of R10-10B2
B10: R1-11C3QH (antibody, human IgG1, kappa, V domains shown)
VH: EVQLEESGAELVRSGASVKLSCTASGFNIKDYYMHWVKQRPEQGLEWIGWIDPENGDTEYAPKFQGKATLTADTSSNTAYLQLSTLTSEDNAVYYCNAAYYGDYVEDMDYWGQGTSVTVSS
VL: B9 VL with T8P, P12S, N14S, L29I, T32S, R44K, I58N, T85A, G96A, V99L
notes: also called chimeric antibody of R1-11C3
B11: R18-22D7QH (antibody, human IgG1, kappa, V domains shown)
VH: EVKLLESGGGLVQPGGSLKLSCAASGFDFSRYWMSWVRQAPGKGLEWIGEINPDSSTINYTPSLKDKFIISRDNAKNTLYLQMSKVRSEDTALYYCARRGGISYAMDYWGQGTSVTVSS
VL: DIVITQDELSNPVTSGESVSISCRSSKSLLYKDGKTYLNWFLQRPGQSPQLLIYLMSTRASGVSDRFSGSGSGTDFTLEISRVKAEDVGVYYCQQLVEYPRTFGGGTKLEIKR
notes: also called chimeric antibody of R18-22D7
B12: R3-16A10QH (antibody, human IgG1, kappa, V domains shown)
VH: EVKLEESGPELVKPGASVKISCKTSGYAFSDSWMNWVKQRPGQGLEWIGRIYPGDGDTQYNGKVKGKATLTADKSSSTAYMQVSSLTSVDSAVYFCAREGGMITSSGYYHALDYWGQGTSVTVSS
VL: DIVMTQSPASLAVSLGQRTTISCRASESVDSYGNSFLNWYQQKPGQPPKVLIYLASNLESGVPARFSGSGSRTDFTLIIDPVEADDAATYYCQQNNEDPTFGGGTKLEIKR
notes: also called chimeric antibody of R3-16A10
B13: R3-38B6QH (antibody, human IgG1, kappa, V domains shown)
VH: B12 VH with E1Q, K3Q, T24A, D31S, N61H, S106N
VL: B12 VL with S7T, P8T, L15Q, T19A, R24S, L37M, I78T
notes: also called chimeric antibody of R3-38B6
B14: R10-6A11QH (antibody, human IgG1, kappa, V domains shown)
VH: QVKLEESGPGILQPSQTLSLTCSFSGFSLSTSGMGVSWIRQPSGKGLEWLAHIYWDDDKNYNPSLKSRLTISKDTSRNQVFLKITSVDTADTATYYCARKIYYDYDYALDYWGQGTSVTVSS
VL: DIVMTQAAFSNPVTLGTSASISCRSSKSLLHSNGITYLCWFLQKPGQSPQLLIYQMSNLASGVPDRFSGSGSGTDFTLRISRVEAEDVGVYYCAQNLELWTFGGGTKLEIKR
notes: also called chimeric antibody of R10-6A11
B15: R18-11B1QH (antibody, human IgG1, kappa, V domains shown)
VH: EVQLEESGPELVKPGASVKISCKSSAQTFSGSWINWVKQRPGQGLEWIGRIFPGDGDTKYNMNFTGKATLTADKSSNTAYMHVSSLTSVDSAVYFCARYDGYYDIGYFDVWGAGTTVTVSS
VL: DIVMTQTPASLAVSLGQRATISCRASASVDSYGNKFIHWYQQKPGQPPKLLISLASNLESGVPARFSGSGSRTDFTLTIDPVEADDAATYYCQQTNEDPWTFGGGTKLEIKR
notes: also called chimeric antibody of R18-11B1
B16: R10-19B2QH (antibody, human IgG1, kappa, V domains shown)
VH: EVKLQESGPGMLQPSQTLSLTCSFSGFSLSTSGMGVSWIRQPSGKGLEWLAHIYWDDDKNFNPSLRSRLIISKDPSRNQVFLEITSVDTADTATYFCARKLYNDYDYILDYWGQGTSVTVSS
VL: B14 VL

molecular target: T1, recombinant RSV-F protein (RSV A2 strain fusion (F) protein with added His tag) (human respiratory syncytial virus, A2 …, UniProt P03420 26-524); experiment: SPR (Biacore), antibody captured, RSV-F as analyte; column head prints nM, Kd/Ka gives M
T1 construct: also called RSV-F recombinant protein
T1 sequence (P03420 26-109, chain 1 of 2): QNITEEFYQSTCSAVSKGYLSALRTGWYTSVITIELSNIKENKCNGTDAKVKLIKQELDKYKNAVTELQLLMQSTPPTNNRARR
T1 sequence (P03420 137-524, chain 2 of 2): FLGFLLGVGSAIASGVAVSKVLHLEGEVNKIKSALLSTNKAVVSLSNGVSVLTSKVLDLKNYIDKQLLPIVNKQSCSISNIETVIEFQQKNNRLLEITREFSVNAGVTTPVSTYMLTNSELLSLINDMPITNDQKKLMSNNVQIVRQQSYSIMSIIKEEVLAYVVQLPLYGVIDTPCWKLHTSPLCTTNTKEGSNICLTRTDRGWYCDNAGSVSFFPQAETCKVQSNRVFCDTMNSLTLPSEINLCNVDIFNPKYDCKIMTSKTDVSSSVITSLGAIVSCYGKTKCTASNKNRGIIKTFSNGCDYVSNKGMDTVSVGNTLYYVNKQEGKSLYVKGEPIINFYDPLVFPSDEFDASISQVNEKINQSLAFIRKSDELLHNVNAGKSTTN

Binder	Kd [nM]
B1	0.07
B2	0.0528
B3	0.0509
B4	0.0438
B5	0.102
B6	0.0698
B7	0.0597

molecular target: T1, recombinant RSV-F protein (RSV A2 …); experiment: SPR (Biacore), antibody captured, RSV-F as analyte

Binder	Kd [nM]	koff [s⁻¹]	kon [M⁻¹ s⁻¹]
B8	0.171	0.000115	673000
B9	0.0489	3.68e-05	753000
B10	0.0256	1.41e-05	549000
B11	3.54	0.00127	357000
B12		2.69e-05	537000
B13	0.061	3.02e-05	495000
B14		0.000339	1.03e+06
B15	0.205	0.000169	824000

molecular target: RSV-F protein of RSV A2 virus (as carried by the live virus in the neutralisation assay) (human respiratory syncytial virus, …, UniProt P03420 26-574); experiment: cell-based or functional assay
Sequence (P03420 26-574): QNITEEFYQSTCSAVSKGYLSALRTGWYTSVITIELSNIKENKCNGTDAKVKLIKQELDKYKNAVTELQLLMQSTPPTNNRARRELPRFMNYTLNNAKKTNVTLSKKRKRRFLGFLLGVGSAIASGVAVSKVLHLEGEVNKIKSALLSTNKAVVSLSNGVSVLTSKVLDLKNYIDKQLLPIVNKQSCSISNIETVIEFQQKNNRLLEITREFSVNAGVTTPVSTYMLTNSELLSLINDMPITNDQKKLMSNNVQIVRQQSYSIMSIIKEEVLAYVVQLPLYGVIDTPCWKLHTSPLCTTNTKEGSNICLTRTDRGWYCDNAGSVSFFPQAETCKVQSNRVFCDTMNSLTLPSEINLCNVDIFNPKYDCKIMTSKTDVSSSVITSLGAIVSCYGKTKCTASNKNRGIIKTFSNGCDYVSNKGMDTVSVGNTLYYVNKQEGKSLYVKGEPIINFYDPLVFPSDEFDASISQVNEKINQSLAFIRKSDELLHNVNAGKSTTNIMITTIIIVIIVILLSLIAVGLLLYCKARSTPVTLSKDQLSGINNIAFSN

Binder	Absolute IC50, neutralizing RSV A2 (HEp-2 cells, indirect ELISA) [ng/mL]
B8	5.92
B9	96.8
B10	118
B11	30
B12	11.8
B13	17.6
B14	7.45
B16	12
B15	101

molecular target: RSV-F protein of RSV A Long virus (as carried by the live virus in the neutralisation assay) (human respiratory syncytial virus, …, UniProt P12568 26-574); experiment: cell-based or functional assay

Binder	Absolute IC50, neutralizing RSV A Long (HEp-2 cells, indirect ELISA) [ng/mL]
B9	214
B10	316
B11	68.2
B12	25.8
B13	73.3
B14	19.9
B16	10.2
B15	43.2

molecular target: RSV-F protein of RSV B9320 virus (as carried by the live virus in the neutralisation assay) (human respiratory syncytial virus, …); experiment: cell-based or functional assay

Binder	Absolute IC50, neutralizing RSV B9320 (HEp-2 cells, indirect ELISA) [ng/mL]
B9	91.5
B10	66.6
B11	8.93
B12	72.6
B14	266
B16	21

molecular target: T1, recombinant RSV-F protein (RSV A2 …); experiment: SPR (Biacore), antibody captured, RSV-F as analyte; remark: another data set of the same source

Binder	koff [s⁻¹]	kon [M⁻¹ s⁻¹]
B1	0.000138	1.97e+06
B2	0.000162	3.07e+06
B3	0.000117	2.3e+06
B4	0.000156	3.57e+06
B5	0.000165	1.61e+06
B6	0.000166	2.38e+06
B7	0.000138	2.31e+06
